Measurements: paper PMC11306785

Target: FLAG-PPM1G-YLmut (human) (UniProt O15355)
Experiment: co-IP; anti-FLAG affinity gel (25 μl), 1-2 mg lysate of transiently transfected HEK293H cells, 1 h at 4°C, lysis buffer 50 mM HEPES-KOH pH 7.5, 50 mM KCl, 2 mM MgCl2, 2 mM EGTA, 5% glycerol, 0.5% NP40; partners detected by Western blot; in Figure 3B cells treated with DMSO or PP242 for 2 h

Sequence of UniProt O15355 (O15355 whole entry Y85A/L90A): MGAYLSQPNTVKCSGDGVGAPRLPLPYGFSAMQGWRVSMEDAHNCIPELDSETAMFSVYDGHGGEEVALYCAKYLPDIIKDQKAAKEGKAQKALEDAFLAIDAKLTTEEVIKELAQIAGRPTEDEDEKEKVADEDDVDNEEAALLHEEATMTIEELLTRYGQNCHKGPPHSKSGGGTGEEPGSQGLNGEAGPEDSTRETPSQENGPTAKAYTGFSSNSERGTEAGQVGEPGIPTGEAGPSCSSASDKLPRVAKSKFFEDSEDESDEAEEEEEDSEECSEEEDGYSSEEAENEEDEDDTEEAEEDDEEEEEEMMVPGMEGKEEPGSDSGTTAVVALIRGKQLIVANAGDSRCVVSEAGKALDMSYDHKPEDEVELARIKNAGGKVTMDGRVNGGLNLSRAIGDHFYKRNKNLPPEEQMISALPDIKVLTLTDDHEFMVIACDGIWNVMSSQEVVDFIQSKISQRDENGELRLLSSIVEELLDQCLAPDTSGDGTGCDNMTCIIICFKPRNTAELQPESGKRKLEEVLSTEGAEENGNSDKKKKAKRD

percent decrease of binding against wild-type PPM1G: 80%
Substance: endogenous eIF4E (from UniProt P06730 1-217) (natural protein)
